According to the DeepSol protein solubility set:

Experiment: soluble on expression in E. coli; label from the status in PepcDB or PDB records

Row | Sequence | soluble on expression in E. coli
1 | MPSIDIDEDTSVETTTMTETPTLDLNAKVEIINFINTFDVKGNCYLYHEGEEKLVSTLLRPDDRKRISLMKELEEARTIRQLHKTRLFKDHPFLKKQKRIILLPYSSISKSHMQTSHYSEREINRTKIINTFWKSKLELHYDAAEASILVCSFLAQNIDRNTHGLGISQSKIAIVLGMSLRRVSDTLNRLEQLGYVRRYTEKAKRGKLSLGTFIQVTENFSSQFLPPKKIVGESEEKQKQGSEHQPQDPPEKHYFQFLQSLNDLRLELKNFIVNSEEPIPPVVLQQIFKVL | not soluble
2 | MNYWLMKSEPDEFSIEDLKARPNQTEPWFGIRNYQARNYMRDAMQIGDKVFFYHSSCKVPGIVGIAEVVTNAYPDSTAFDPESTYFDPKSDPSNPRWLRVDIRFVEQFKEIIPLSLIKSLPQLADMYLVSKGSRLSIQPVTAEQWQAVLMLSRLEHHHHHH | soluble
3 | MAGDPNSMKRKPAVAGLFYPSRRDELIEQIRMCFLDKRIGPGKLPGPVETKLQNPIGLVSPHAGYIYSGPVAAWGFLEAVKFGEPSVVVIIGPNHTGLGRPVGVWPEGEWETPLGTVPVNERAVEIVLSNSRYAEEDFMSHIREHSIEVQIPFLQFVFGEVSIVPICLMDQSPAVAEDLASALAKLVAEFPGVLIIASTDLNHYEDQRTTLRKDSYIIEAIEGMDPSLLYEYLVREDISMCGYGGVATLLNMDFENVRILKHATSGDVSGDTLEVVGYLSAILFLEHHHHHH | not soluble
4 | MSSNPLRFFVLTIFPHIISCYSEYGIVKQAIKKGKVEVYPIDLREFAPKGQVDDVPYGGLPGMVLKPEPIYEAYDYVVENYGKPFVLITEPWGEKLNQKLVNELSKKERIMIICGRYEGVDERVKKIVDMEISLGDFILSGGEIVALAVIDAVSRVLPGVLSEPQSIQEDSFQNRWLGYPVYTRPREYRGMKVPEELLSGHHKLIELWKLWHRIENTVKKRPDLIPKDLTELEKDILNSILSGKSFKEWLKEHKHLL | soluble
5 | MSLDKAPERVVSVGYTDDQTVLAFGIKPVGMVDQYPNPAGQSPDINTQWPWVKDKWGDTKPEVVMKNGDTGPNFEKIAALRPDLIVAVYSEIDQAAYDKLSKIAPTVGRTKGEKEPFSAPWQDNALHIAKALGKAEEGEKMVADIQGKLDAAKQAHPEFADKTAVVLSWYKDSVAPFTSTDVRGRLVTGIGFKYETEIDKVAGGDFYTTLSPERVDLVDVDRVFVINDKADQDALKKFELFTNLDAVKNGKVSYLLDSEGPAVGAAISQGTLLSMPYAVDELVKSAGEGHHHHHH | soluble
6 | GRDFRFSISPNFTWVKNAVEKLANGATEEINNNRIVGQPIGIIYGYETDGLFVDQAEIDAAPEQLVSKSGLKPGYVKYKDISGPDGVPDGKVDAQYDRTVLGSTTPKFYYGLNLSASYKGFDFSALLQGLGGHKRLIGSYMAYAFYNGGQIQRWQAESCWKEENPDKWAEYPRLETLNMNDTNLQTSDYWVRNASFLRVKNIQIGYTFPKAWTKKIGLENVRVYVSGQNLFSFNSFYKGWDPENEIGTGDSPSYYPVNSIYSFGFNFKF | not soluble
7 | MKTSYDDTRQHLLDTGYRIMAVKGFSGVGLNEILQSAGVPKGSFYHYFKSKEQFGQALLEDYFRVYLADMDQRFSAPGLNARERLMSYWQKWLDNACPPCDEQRCLVVKLSAEVADLSESMRITLRDGSDGIIERLVGCLGQGRDDGSLAPCDARHMASALYQLWLGASLLSKLHRSPGPLETAMQTTRSLLEI | soluble
8 | MPMLSEEEGGAKIVLEGPKELLDRIVEALKEVYDPEIPVNVYDLGLIYEVRVEGPREKPRIKVKMSLTAIGCPVSVALPAYVEDAIREAVPEAEDVEVEVVFDPPWTPERVTPEGRELLKTIYGYDVVEQWKRAAQQQYGG | soluble
9 | MLIPAQENNVSLTATPSRIGQIMKYGFPGLDHVRSHSDYVLSYDRRNRVPHWVFEHLTAESVAKNDAVDRSKCDFKQDESIHPFFRSQNTDYRRSGYDRGHMAAAGNHRLHQKHCDETFYLSNMAPQVGQGFNRDAWNTLEAHVRRLTKTYSNVYVCTGPLYLPHKEDDGKSYVKYEVIGANTVAVPTHFYKVIVGESADHKLHMESYVMPNQVISNDTPISVFQVPPESVERSAGLLFFDQINRKQLTTINGKKVAAALEHHHHHH | soluble
10 | GAMEATEIISTLSNGLIASHYGVSFFTIQSFVSSLSNTSTLKNMLYVLSTAVEFESVPLRKGDRALLVKLSKRLPLRFPEHTSSGSVSFKVFLLLQAYFSRLELPVDFQNDLKDILEKVVPLINVVVDILSANGYLNATTAMDLAQMLIQGVWDVDNPLRQIPHFNNKILEKCKEINVETVYDIMALEDEERDEILTLTDSQLAQVAAFVNNYPNVELTYSLNNSDSLISGVKQKITIQLTRDVEPENLQVTSEKYPFDKLESWWLVLGEVSKKELYAIKKVTLNKETQQYELEFDTPTSGKHNLTIWCVCDSYLDADKELSFEINVK | soluble
11 | MLISKHEERVKSILSARMENGNLRSRENTQVEFKQSFNKGNIAIYAKTMAAFSNNSGGYIIFGIKDSPRSIIGLQNSNFENIQQEDLTDSINNLFSPSINELGSFILKEKEINSNGDVIIVQKIIGIYTEESNIKPVIAQKNNSSEKIVNGDIFYRYRARTEKIKYAEMEQIINCRMKQERDSLFKVFEFIRNNGATNLGIVDYNNGKLSTPYGVDVVLEKNLIAKLLKKAKFIKEGSFSENEGIPVIKVTGNINLAEEVPVPLENLDETYPYIQKQLAEKLNITPQKLYALIYFKMKESKKYHLEITTSKTNKTHKFSKFALLFLKEKIIELDENKNELEHHHHHH | not soluble
12 | SNAERRLCAILAADMAGYSRLMERNETDVLNRQKLYRRELIDPAIAQAGGQIVKTTGDGMLARFDTAQAALRCALEIQQAMQQREEDTPRKERIQYRIGINIGDIVLEDGDIFGDAVNVAARLEAISEPGAICVSDIVHQITQDRVSEPFTDLGLQKVKNITRPIRVWQWVPDADRDQSHDPQPSHVQH | soluble
13 | MAHHHHHHMAATKLGINGFGRIGRLVFRAAFGRKDIEVVAINDPFMDLNHLCYLLKYDSVHGQFPCEVTHADGFLLIGEKKVSVFAEKDPSQIPWGKCQVDVVCESTGVFLTKELASSHLKGGAKKVIMSAPPKDDTPIYVMGINHHQYDTKQLIVSNASCTTNCLAPLAKVINDRFGIVEGLMTTVHASTANQLVVDGPSKGGKDWRAGRCALSNIIPASTGAAKAVGKVLPELNGKLTGVAFRVPIGTVSVVDLVCRLQKPAKYEEVALEIKKAAEGPLKGILGYTEDEVVSQDFVHDNRSSIFDMKAGLALNDNFFKLVSWYDNEWGYSNRVLDLAVHITTS | soluble
14 | MRGSHHHHHHGSAELHLESRGGSGTQLRDGAKVATGRIICREAHTGFHVWMNERQVDGRAERYVVQSKDGRHELRVRTGGDGWSPVKGEGGKGVSRPGQEEQVFFDVMADGNQDIAPGEYRFSVGGACVVPQEDNKQGFTPSGTTGTTKLTVT | soluble
15 | APTIPQGQGKVTFNNTVVDAPCSISQKSADQSIDFGQLSKSFLEAGGVSKPMDLDIELVNCDITAFKGGNGAKKGTVKLAFTGPIVNGHSDELDTNGGTGLAIVVQGAGKNVVFDGSEGDANTLKDGENVLHYTAVVKKSSAVGAAVTEGAFSAVANFNLTYQ | soluble
16 | MGSDKIHHHHHHMERLFESFIKKLAITNTSFVRSLMNEIEWEARLIGIKGARGVGKTTLLLQYIKLNLPMDKTVLYASVDNIWFSEHKLYDLASDFVKRGGKYLFLDEVHKYPNWSQELKNIYDDLPELHVVFTGSSLLEILNAKSDLSRRAIVYEMQGFSFREYLNWNEKLSLPILTLNNILDNHLALSVGIVDKVKVLKHFSDYLKHGYYPYYNELPSLYYSRINEVVNLIVELEIPQLRGVDISYTTKIKQLLYIIAESAPFIPNVSKLSERIGISRNSLLAYLDALHDSCLTMNLQKEGSGISRLQKPDKLFLENPNLMYALSASQIDIGNVRETFFANQLRYCHKINVSKESDFFIDGRYTFEVGGRHKGKQQINGLSDAYIVADDIEYGINNKIPLWLFGFLY | not soluble
17 | RGETIKGQFAVAEVILNRVQSERFPNTPCGVIRQGTGRKYQCQFTYTCDGRKEVIAEKQAYERVAKVARLAMDGAAESLTDGATYYHTTAVRPSWARRFTQTTKIGVHLFYRQGQRTASN | not soluble
18 | MGSSHHHHHHSSGLVPRGSHMASASAAGGQQSFDLLVIGGGSGGLACAKEAAQLGKKVAVADYVEPSPRGTKWGLGGTCVNVGCIPKKLMHQAALLGGMIRDAHHYGWEVAQPVQHNWKTMAEAVQNHVKSLNWGHRVQLQDRKVKYFNIKASFVDEHTVRGVDKGGKATLLSAEHIVIATGGRPRYPTQVKGALEYGITSDDIFWLKESPGKTLVVGASYVALECAGFLTGIGLDTTVMMRSIPLRGFDQQMSSLVTEHMESHGTQFLKGCVPSHIKKLPTNQLQVTWEDHASGKEDTGTFDTVLWAIGRVPETRTLNLEKAGISTNPKNQKIIVDAQEATSVPHIYAIGDVAEGRPELTPTAIKAGKLLAQRLFGKSSTLMDYSNVPTTVFTPLEYGCVGLSEEEAVALHGQEHVEVYHAYYKPLEFTVADRDASQCYIKMVCMREPPQLVLGLHFLGPNAGEVTQGFALGIKCGASYAQVMQTVGIHPTCSEEVVKLHISKRSGLEPTVTGCCG | soluble
19 | MRKPIEHTADIAYEISGNSYEELLEEARNILLEEEGIVLDTEEKEKMYPLEETEDAFFDTVNDWILEISKGWAPWRIKREGNELKVTFRKIRKKEGTEIKALTYHLLKFERDGDVLKTKVVFDT | not soluble
20 | MGDHYGFSLTTFSPSGKLMQIEYALNAVKNGQPSVGLRAKDGVVLATENVGSVLTDDQPKVEQISKHIGCVYSGMGPDFRILVKKARKIAMEYEMMYGEEMPTIQLVTDIAAVMQEYTQSGGVRPFGASLLIAGWDKNPGRPLLFQCDPSGAYFAWKATALGKNDVNAKTFLEKRFSEALELDDGIHTALLTLRESFDVGMNENNVEVAVCNSTGFHRLTKQQVHDHLGTL | not soluble
21 | PFSFCRRIYLPTDLRSYPSVRNVLIHEQEHTRATHFVDLLIAEVACMLFWFNPFAWALKRDMQRNLEFLADRAVLLRGVSRREYQYELL | not soluble
22 | MVAATSQNTFDSPRSPLYNFTMDIRPLSDVAGVILVGGRSRRMGRDKALIPLGGKPLVERVIDAFRPLFERILLVGDRGERFASYGLPVFPDIHPGSALGGLYTGLVRAGTPHVFVSACDVPWPDPRVIARLCSLREGFDVVVPRTVGGSEPLFAVYGTGCLPAMERMLREGNYRIYDFYPEVRTRYVEQAELADLVTPARTFVNVNTPEEFETIRNREEGMAIKAVSFVAKSGTGKTTLLEKVIAELKGRGYRIGVIKHDAHRFDIDHPGKDSHRLAAAGADTMLIASPEKLALVKKYDESPPLDELLATYFGDVDIVLTEGFKKSSLPKIEVHRMERSATLLCRGEEHDPTLVAVASDAALALDVPVFDLNNPAQVADFVERTFLAAGAALEHHHHHH | soluble
23 | MNCREGCGACCIAPSISTPIPGMPQGKPAGERCLHLSVEHLCGLFGLPERPAVCGAFLADPEVCGESREEAIRLIGWWEQVTAALEHHHHHH | not soluble
24 | GGRLLGALCVFKDITDAVELAEEVTNLKQVRTMLEAIIQSSDEAISVVDENGIGLLINKAYTKMTGLSEKEVIGKPANTDISEGESMHLKVLETRRPVRGVRMKVGPNEKEVIVNVAPVIVDG | not soluble
25 | MAHHHHHHMPDGQQQSAKCATQVQNGEEATRNTYPRRDDTKLHVGLDYSSFYLDTPYKIIKCMNKGSHFLYWGSDTLCGQSDQVTKEFKMNEMKKNNCEELRNSRFIFFDSQKKLLVLRYNIRKNSFNYVSDSDPIYVYFYQLHEKNFLDDNIIKENKNSLLIYPYTYVKIWESLTCYINEEVINKIEPVNKTFCSSFLEEEVEEEKKKKKGGTDLRREEEMNLCNQPYMFYSVIPRYPASKTYPKEGRVSGGSRHKKEDNVGVITAEGDGASSINMGGDGSGGINTEGDGSGGAGGINMEGDHPVDPDEPPNDHLDGA | not soluble
